From patent US20250326842A1 come the findings set out here.

In experiment [1] the target is FcγRIIA H131 (human) (UniProt P12318). Put plainly: Biacore, KD from equilibrium analysis. (In general: Surface plasmon resonance follows binding to a sensor surface in real time, without labels.)
The target of experiment [2] is FcγRIIA R131 (human) (UniProt P12318). Put plainly: Biacore, KD from equilibrium analysis.
Experiment [3] concerns the target FcγRIIB (human) (UniProt P31994). Put plainly: Biacore, KD from equilibrium analysis.
For experiment [4], the target named is FcγRIIIA F158 (human) (UniProt P08637). Put plainly: Biacore, KD from equilibrium analysis.
FcγRIIIA F158 (human), sequence (P08637 17-208 limits assumed): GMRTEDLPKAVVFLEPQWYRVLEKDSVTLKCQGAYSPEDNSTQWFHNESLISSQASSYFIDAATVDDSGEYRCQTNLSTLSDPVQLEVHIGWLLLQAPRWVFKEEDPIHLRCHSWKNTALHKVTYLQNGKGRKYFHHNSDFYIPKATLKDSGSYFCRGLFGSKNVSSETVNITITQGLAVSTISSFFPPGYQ
Experiment [5] deals with FcγRI (human) (UniProt P12314). Put plainly: Biacore, KD from kinetic constants (koff/kon).
FcγRI (human), sequence (P12314 16-288 limits assumed): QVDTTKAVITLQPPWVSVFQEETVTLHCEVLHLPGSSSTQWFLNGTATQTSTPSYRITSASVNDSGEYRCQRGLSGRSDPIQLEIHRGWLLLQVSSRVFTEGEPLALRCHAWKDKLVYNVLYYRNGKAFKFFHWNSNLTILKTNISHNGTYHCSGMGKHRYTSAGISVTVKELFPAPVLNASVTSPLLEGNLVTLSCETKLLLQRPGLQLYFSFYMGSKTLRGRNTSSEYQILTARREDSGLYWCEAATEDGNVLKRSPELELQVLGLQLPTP
The target of experiment [6] is Human C1q (human) (UniProt P02745). Briefly: ELISA: plate coated with increasing amounts of antibody, human C1q at 8 µg/mL, anti-C1q antibody detection. In general terms: ELISA stands for enzyme-linked immunosorbent assay.
Human C1q (human), sequence (P02745 23-245 limits assumed, chain 1 of 3): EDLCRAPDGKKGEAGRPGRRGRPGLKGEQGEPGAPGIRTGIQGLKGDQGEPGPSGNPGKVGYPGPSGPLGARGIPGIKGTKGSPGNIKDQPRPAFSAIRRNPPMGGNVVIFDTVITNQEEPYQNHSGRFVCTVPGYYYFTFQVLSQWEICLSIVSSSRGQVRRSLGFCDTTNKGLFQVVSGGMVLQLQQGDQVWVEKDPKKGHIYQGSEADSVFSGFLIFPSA
Human C1q (human), sequence (P02746 28-253 limits assumed, chain 2 of 3, further chain): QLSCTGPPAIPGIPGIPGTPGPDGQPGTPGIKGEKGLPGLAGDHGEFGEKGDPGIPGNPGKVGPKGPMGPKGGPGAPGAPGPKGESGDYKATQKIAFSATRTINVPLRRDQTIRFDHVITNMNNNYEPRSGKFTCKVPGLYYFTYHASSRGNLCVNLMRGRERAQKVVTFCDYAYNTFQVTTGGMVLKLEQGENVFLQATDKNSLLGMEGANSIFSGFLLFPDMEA
Human C1q (human), sequence (P02747 29-245 limits assumed, chain 3 of 3, further chain): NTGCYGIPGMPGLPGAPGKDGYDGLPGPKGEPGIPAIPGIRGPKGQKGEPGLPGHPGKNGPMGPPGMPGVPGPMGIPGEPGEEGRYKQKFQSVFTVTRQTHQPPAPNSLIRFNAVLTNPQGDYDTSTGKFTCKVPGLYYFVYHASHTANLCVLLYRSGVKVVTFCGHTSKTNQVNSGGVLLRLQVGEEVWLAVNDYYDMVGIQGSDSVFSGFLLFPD

FcγRIIA H131 (human), sequence (P12318 36-218 limits assumed): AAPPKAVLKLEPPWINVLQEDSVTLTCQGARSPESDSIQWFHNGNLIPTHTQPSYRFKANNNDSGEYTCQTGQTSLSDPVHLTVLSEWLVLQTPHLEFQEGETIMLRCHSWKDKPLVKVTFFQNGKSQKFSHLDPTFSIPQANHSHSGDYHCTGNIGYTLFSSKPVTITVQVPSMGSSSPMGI
FcγRIIA R131 (human), sequence (P12318 36-218 H167R limits assumed): as the sequence (P12318 36-218 limits assumed) above, with H132R counted along it
FcγRIIB (human), sequence (P31994 46-217 limits assumed): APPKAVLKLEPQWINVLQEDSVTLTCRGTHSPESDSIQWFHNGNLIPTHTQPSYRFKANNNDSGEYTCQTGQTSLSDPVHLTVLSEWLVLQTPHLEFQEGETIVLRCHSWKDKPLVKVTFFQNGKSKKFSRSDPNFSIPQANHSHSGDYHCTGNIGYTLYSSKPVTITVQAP

What is called Kd is the constant that tells how readily two partners part at equilibrium. A low value points to tighter binding. As usually defined, the EC50 (read off the curve) is the midpoint of the concentration-response curve. Low readings indicate higher potency in that assay, high ones lower potency in that assay. With HuIgG (antibody), the Kd in experiment [1] worked out at 379 nM; in experiment [2] it was 481 nM; in experiment [3], 3120 nM; in experiment [4], 691 nM; in experiment [5], 2.7 nM. For the same substance, the EC50 (read off the curve) in experiment [6] was 2 µg/mL.
